Drawing on PMC6555819, “Comprehensive study of nuclear receptor DNA binding provides a revised framework for understanding receptor specificity”, this text covers binding signal for 32 molecules.

Sequences and labels used below:
B1: NRC3_random_hg19_118_o1 (dsDNA)
DNA 1: GCTTGTCACTTGTCATTCCTGCCAAGAGAGCTCTATGCGATTGACAGCGTAGAATGAAGG
DNA 2: CCTTCATTCTACGCTGTCAATCGCATAGAGCTCTCTTGGCAGGAATGACAAGTGACAAGC
B2: NRC3_wobSeed33_DR1_A13C_o1 (dsDNA)
DNA 1: GCATCTCTAGGTCAAAGTTCAGTGAATCCCGAGGATGCGATTGACAGCGTAGAATGAAGG
DNA 2: CCTTCATTCTACGCTGTCAATCGCATCCTCGGGATTCACTGAACTTTGACCTAGAGATGC
B3: NRC3_wobSeed33_DR1_A13G_o1 (dsDNA)
DNA 1: GCATCTCTAGGTGAAAGTTCAGTGAATCCCGAGGATGCGATTGACAGCGTAGAATGAAGG
DNA 2: CCTTCATTCTACGCTGTCAATCGCATCCTCGGGATTCACTGAACTTTCACCTAGAGATGC
B4: NRC3_random_hg19_181_o1 (dsDNA)
DNA 1: GCGCAGCATTTGTGTGCATGTATGCTGTGTGTATGCGCGATTGACAGCGTAGAATGAAGG
DNA 2: CCTTCATTCTACGCTGTCAATCGCGCATACACACAGCATACATGCACACAAATGCTGCGC
B5: NRC3_random_hg19_88_o1 (dsDNA)
DNA 1: GCAGATTGCTGGCCAACTGCTCCTGATCCATTACTAGCGATTGACAGCGTAGAATGAAGG
DNA 2: CCTTCATTCTACGCTGTCAATCGCTAGTAATGGATCAGGAGCAGTTGGCCAGCAATCTGC
B6: NRC3_wobSeed42_DR1_A8T_o1 (dsDNA)
DNA 1: GCTATACTGGGTCAAAGGCCAGAGTACGAATGTCGAGCGATTGACAGCGTAGAATGAAGG
DNA 2: CCTTCATTCTACGCTGTCAATCGCTCGACATTCGTACTCTGGCCTTTGACCCAGTATAGC
B7: NRC3_random_hg19_235_o1 (dsDNA)
DNA 1: GCGCTGGGAGGCAACTGCCATTGGCATGCCATGCCAGCGATTGACAGCGTAGAATGAAGG
DNA 2: CCTTCATTCTACGCTGTCAATCGCTGGCATGGCATGCCAATGGCAGTTGCCTCCCAGCGC
B8: NRC3_wobSeed36_DR1_C23G_o1 (dsDNA)
DNA 1: GCCCGACTGGGGCAAAGGTTACGATACTCAGTACGAGCGATTGACAGCGTAGAATGAAGG
DNA 2: CCTTCATTCTACGCTGTCAATCGCTCGTACTGAGTATCGTAACCTTTGCCCCAGTCGGGC
B9: NRC3_wobSeed36_DR1_G5C_o1 (dsDNA)
DNA 1: GCCCCACTGGGGCAAAGGTTACCATACTCAGTACGAGCGATTGACAGCGTAGAATGAAGG
DNA 2: CCTTCATTCTACGCTGTCAATCGCTCGTACTGAGTATGGTAACCTTTGCCCCAGTGGGGC
B10: NRC3_random_hg19_305_o1 (dsDNA)
DNA 1: GCGACTGCACTCCAGCCTGGGCAATAGAGTGAGACTGCGATTGACAGCGTAGAATGAAGG
DNA 2: CCTTCATTCTACGCTGTCAATCGCAGTCTCACTCTATTGCCCAGGCTGGAGTGCAGTCGC
B11: NRC3_wobSeed25_DR1_A23G_o1 (dsDNA)
DNA 1: GCCAAACTAGGTCAAAGGTCAAGGTCGAGCCAACCAGCGATTGACAGCGTAGAATGAAGG
DNA 2: CCTTCATTCTACGCTGTCAATCGCTGGTTGGCTCGACCTTGACCTTTGACCTAGTTTGGC
B12: NRC3_wobSeed25_DR1_A22G_o1 (dsDNA)
DNA 1: GCCAAACTAGGTCAAAGGTCAGAGTCGAGCCAACCAGCGATTGACAGCGTAGAATGAAGG
DNA 2: CCTTCATTCTACGCTGTCAATCGCTGGTTGGCTCGACTCTGACCTTTGACCTAGTTTGGC
B13: NRC3_wobSeed25_DR1_A23C_o1 (dsDNA)
DNA 1: GCCAAACTAGGTCAAAGGTCAACGTCGAGCCAACCAGCGATTGACAGCGTAGAATGAAGG
DNA 2: CCTTCATTCTACGCTGTCAATCGCTGGTTGGCTCGACGTTGACCTTTGACCTAGTTTGGC
B14: NRC3_random_hg19_220_o1 (dsDNA)
DNA 1: GCTTGGTTGCAAGCAATACAAAGCAACTCTTGCTAAGCGATTGACAGCGTAGAATGAAGG
DNA 2: CCTTCATTCTACGCTGTCAATCGCTTAGCAAGAGTTGCTTTGTATTGCTTGCAACCAAGC
B15: NRC3_wobSeed49_DR2_T26G_o1 (dsDNA)
DNA 1: GCCAAACTAGGTCAAGAGGTCAAAGGCCGCTTCCCGGCGATTGACAGCGTAGAATGAAGG
DNA 2: CCTTCATTCTACGCTGTCAATCGCCGGGAAGCGGCCTTTGACCTCTTGACCTAGTTTGGC
B16: NRC3_wobSeed49_DR2_A15C_o1 (dsDNA)
DNA 1: GCCAAACTAGGTCACGAGGTCAAAGTCCGCTTCCCGGCGATTGACAGCGTAGAATGAAGG
DNA 2: CCTTCATTCTACGCTGTCAATCGCCGGGAAGCGGACTTTGACCTCGTGACCTAGTTTGGC
B17: NRC3_wobSeed30_DR1_C8T_o1 (dsDNA)
DNA 1: GCACTAGTAGGCCAAGGGTCACTCAAGATTAGTCCGGCGATTGACAGCGTAGAATGAAGG
DNA 2: CCTTCATTCTACGCTGTCAATCGCCGGACTAATCTTGAGTGACCCTTGGCCTACTAGTGC
B18: NRC3_wobSeed29_DR1_T5A_o1 (dsDNA)
DNA 1: GCGCATACGGGTCAAAGGTTATAGCATGAATAGAATGCGATTGACAGCGTAGAATGAAGG
DNA 2: CCTTCATTCTACGCTGTCAATCGCATTCTATTCATGCTATAACCTTTGACCCGTATGCGC
B19: NRC3_wobSeed29_DR1_A23G_o1 (dsDNA)
DNA 1: GCGCTTACGGGTCAAAGGTTATGGCATGAATAGAATGCGATTGACAGCGTAGAATGAAGG
DNA 2: CCTTCATTCTACGCTGTCAATCGCATTCTATTCATGCCATAACCTTTGACCCGTAAGCGC
B20: NRC3_wobSeed31_DR1_A13G_o1 (dsDNA)
DNA 1: GCTCATATAGGTGAAAGGTGAAAGTCGGTGTGGTAAGCGATTGACAGCGTAGAATGAAGG
DNA 2: CCTTCATTCTACGCTGTCAATCGCTTACCACACCGACTTTCACCTTTCACCTATATGAGC
B21: NRC3_wobSeed31_DR1_A13T_o1 (dsDNA)
DNA 1: GCTCATATAGGTTAAAGGTGAAAGTCGGTGTGGTAAGCGATTGACAGCGTAGAATGAAGG
DNA 2: CCTTCATTCTACGCTGTCAATCGCTTACCACACCGACTTTCACCTTTAACCTATATGAGC
B22: NRC3_wobSeed97_DR4_G27A_o1 (dsDNA)
DNA 1: GCCAAACTAGGTCACGAAAGGTCAAAATCGAATGACGCGATTGACAGCGTAGAATGAAGG
DNA 2: CCTTCATTCTACGCTGTCAATCGCGTCATTCGATTTTGACCTTTCGTGACCTAGTTTGGC
B23: NRC3_wobSeed97_DR4_A4T_o1 (dsDNA)
DNA 1: GCCTAACTAGGTCACGAAAGGTCAAAGTCGAATGACGCGATTGACAGCGTAGAATGAAGG
DNA 2: CCTTCATTCTACGCTGTCAATCGCGTCATTCGACTTTGACCTTTCGTGACCTAGTTAGGC
B24: NRC3_wobSeed97_DR4_C29T_o1 (dsDNA)
DNA 1: GCCAAACTAGGTCACGAAAGGTCAAAGTTGAATGACGCGATTGACAGCGTAGAATGAAGG
DNA 2: CCTTCATTCTACGCTGTCAATCGCGTCATTCAACTTTGACCTTTCGTGACCTAGTTTGGC
B25: NRC3_wobSeed97_DR4_C7G_o1 (dsDNA)
DNA 1: GCCAAAGTAGGTCACGAAAGGTCAAAGTCGAATGACGCGATTGACAGCGTAGAATGAAGG
DNA 2: CCTTCATTCTACGCTGTCAATCGCGTCATTCGACTTTGACCTTTCGTGACCTACTTTGGC
B26: NRC3_random_hg19_81_o1 (dsDNA)
DNA 1: GCGACTTTGTTGCCTAGGCTGGAATCTATCATGGCTGCGATTGACAGCGTAGAATGAAGG
DNA 2: CCTTCATTCTACGCTGTCAATCGCAGCCATGATAGATTCCAGCCTAGGCAACAAAGTCGC
B27: NRC3_random_hg19_131_o1 (dsDNA)
DNA 1: GCTCCCTCAAGCTCTCTGAATCTCAGAGTCAGCATCGCGATTGACAGCGTAGAATGAAGG
DNA 2: CCTTCATTCTACGCTGTCAATCGCGATGCTGACTCTGAGATTCAGAGAGCTTGAGGGAGC
B28: NRC3_wobSeed73_DR3_A4T_o1 (dsDNA)
DNA 1: GCCTAACTAGGTCACAGAGGTCAAAGTCCGTGCGTAGCGATTGACAGCGTAGAATGAAGG
DNA 2: CCTTCATTCTACGCTGTCAATCGCTACGCACGGACTTTGACCTCTGTGACCTAGTTAGGC
B29: NRC3_wobSeed121_DR5_C7G_o1 (dsDNA)
DNA 1: GCCAAAGTAGGTCACCGGAAGGTCAAAGTCCGCATGGCGATTGACAGCGTAGAATGAAGG
DNA 2: CCTTCATTCTACGCTGTCAATCGCCATGCGGACTTTGACCTTCCGGTGACCTACTTTGGC
B30: NRC3_wobSeed39_DR1_A19C_o1 (dsDNA)
DNA 1: GCCGAACTAGGTCAAAGGCCAGTGAAAGGCGACGTAGCGATTGACAGCGTAGAATGAAGG
DNA 2: CCTTCATTCTACGCTGTCAATCGCTACGTCGCCTTTCACTGGCCTTTGACCTAGTTCGGC
B31: NRC3_wobSeed39_DR1_G22C_o1 (dsDNA)
DNA 1: GCCGAACTAGGTCAAAGGACACTGAAAGGCGACGTAGCGATTGACAGCGTAGAATGAAGG
DNA 2: CCTTCATTCTACGCTGTCAATCGCTACGTCGCCTTTCAGTGTCCTTTGACCTAGTTCGGC
B32: NRC3_random_hg19_333_o1 (dsDNA)
DNA 1: GCATGCCTGTAATCCCAGCTACTTGGGAGGCTGAGAGCGATTGACAGCGTAGAATGAAGG
DNA 2: CCTTCATTCTACGCTGTCAATCGCTCTCAGCCTCCCAAGTAGCTGGGATTACAGGCATGC

In the series the target is PPARg:RXRa (Homo sapiens, UniProt P37231;P19793 full;full). Nature of the series: no ligand; PBM; 180 nM : 90 nM RXRa; PBS pH 7.4, 2% milk, 0.02% Triton X-100, 1 mM DTT, BSA, 0.4 mg/ml salmon testes DNA. The note with it: tags: His kept;His cleaved; copies: 1;1; label: surface-attached array probe.
PPARg:RXRa, sequence (P37231 29-505, chain 1 of 2): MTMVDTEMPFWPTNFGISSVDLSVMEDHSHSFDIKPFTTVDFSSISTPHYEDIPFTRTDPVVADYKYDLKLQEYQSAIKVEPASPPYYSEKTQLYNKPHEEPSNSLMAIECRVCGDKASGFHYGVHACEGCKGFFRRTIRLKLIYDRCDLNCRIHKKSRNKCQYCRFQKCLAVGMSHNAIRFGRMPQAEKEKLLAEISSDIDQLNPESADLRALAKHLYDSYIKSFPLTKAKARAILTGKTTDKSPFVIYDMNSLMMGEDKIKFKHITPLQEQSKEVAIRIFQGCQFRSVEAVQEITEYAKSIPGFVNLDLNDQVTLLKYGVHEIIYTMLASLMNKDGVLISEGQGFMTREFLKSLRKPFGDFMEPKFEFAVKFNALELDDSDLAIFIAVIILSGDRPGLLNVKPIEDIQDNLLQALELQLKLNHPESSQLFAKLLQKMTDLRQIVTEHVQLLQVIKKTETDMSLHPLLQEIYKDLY
PPARg:RXRa, sequence (P19793 whole entry, chain 2 of 2): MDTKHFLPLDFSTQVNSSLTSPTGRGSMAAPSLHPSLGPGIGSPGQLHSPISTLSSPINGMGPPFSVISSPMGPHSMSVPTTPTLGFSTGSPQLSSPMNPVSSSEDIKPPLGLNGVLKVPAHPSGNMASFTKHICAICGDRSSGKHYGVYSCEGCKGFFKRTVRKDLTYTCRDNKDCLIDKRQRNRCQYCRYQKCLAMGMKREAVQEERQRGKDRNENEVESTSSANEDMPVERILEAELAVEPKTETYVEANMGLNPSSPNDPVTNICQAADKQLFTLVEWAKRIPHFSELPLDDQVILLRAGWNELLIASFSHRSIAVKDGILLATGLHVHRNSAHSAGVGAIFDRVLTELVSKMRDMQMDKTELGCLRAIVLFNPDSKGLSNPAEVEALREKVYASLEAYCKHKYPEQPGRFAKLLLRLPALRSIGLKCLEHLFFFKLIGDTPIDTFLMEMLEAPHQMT
As for B1, the binding signal was -0.38 PBM z-score against 500 random probes.

With B2, the binding signal is 11.7 PBM z-score against 500 random probes.

For B3, the binding signal was 10.7 PBM z-score against 500 random probes.

Take B4: the binding signal is -0.13 PBM z-score against 500 random probes.

Take B5: the binding signal was -0.23 PBM z-score against 500 random probes.

Consider B6, for which the binding signal was 10.8 PBM z-score against 500 random probes.

As for B7, the binding signal is -0.53 PBM z-score against 500 random probes.

Take B8: the binding signal was 12.2 PBM z-score against 500 random probes.

Take B9: the binding signal was 12.2 PBM z-score against 500 random probes.

For the molecule B10, the binding signal is -0.27 PBM z-score against 500 random probes.

For the molecule B11, the binding signal is 14.4 PBM z-score against 500 random probes.

For B12, the binding signal was 14.2 PBM z-score against 500 random probes.

As for B13, the binding signal is 14.2 PBM z-score against 500 random probes.

With B14, the binding signal is -0.18 PBM z-score against 500 random probes.

Take B15: the binding signal was 10.9 PBM z-score against 500 random probes.

Take B16: the binding signal is 10.5 PBM z-score against 500 random probes.

Regarding B17, the binding signal was 10.9 PBM z-score against 500 random probes.

In the case of B18, the binding signal is 12.2 PBM z-score against 500 random probes.

As for B19, the binding signal was 12 PBM z-score against 500 random probes.

Turning to B20, the binding signal was 11.6 PBM z-score against 500 random probes.

For the molecule B21, the binding signal is 10.8 PBM z-score against 500 random probes.

B22: the binding signal was 10.9 PBM z-score against 500 random probes.

On to B23, for which the binding signal is 10.8 PBM z-score against 500 random probes.

Regarding B24, the binding signal was 10.9 PBM z-score against 500 random probes.

On to B25, for which the binding signal is 10.8 PBM z-score against 500 random probes.

Consider B26, for which the binding signal was -0.16 PBM z-score against 500 random probes.

Regarding B27, the binding signal is -0.66 PBM z-score against 500 random probes.

For the molecule B28, the binding signal was 10.9 PBM z-score against 500 random probes.

In the case of B29, the binding signal was 10.4 PBM z-score against 500 random probes.

For B30, the binding signal was 11.3 PBM z-score against 500 random probes.

For the molecule B31, the binding signal was 11.2 PBM z-score against 500 random probes.

For the molecule B32, the binding signal was -0.21 PBM z-score against 500 random probes.
